From patent publication US20090004111

Biological target: NS5A domain I-Δh (HCV NS5A N-terminal domain) (Hepatitis C virus) (UniProt Q9WMX2)
Test: EMSA
Conditions: approximate Kd, non-specific RNA sequence; text says NS5A, construct taken as the purified domain I-Δh

Chain of UniProt Q9WMX2 (Q9WMX2 1997-2188, tags or fused parts left off): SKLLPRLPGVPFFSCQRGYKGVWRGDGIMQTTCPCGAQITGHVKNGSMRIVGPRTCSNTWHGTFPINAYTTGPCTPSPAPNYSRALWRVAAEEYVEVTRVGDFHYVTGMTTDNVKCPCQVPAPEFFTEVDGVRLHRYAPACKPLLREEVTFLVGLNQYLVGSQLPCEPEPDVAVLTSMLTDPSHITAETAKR

non-specific ssRNA (plasmid polylinker transcript)
Kd: 10 nM
